Like-named read-outs stand apart in the source and are kept apart here.

The nature of data set [1]: 4-MUL cellobiose tolerance/inhibition assay, dose-response IC50 (Example 2). Format: biochemical. Summed up: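 CBH I variant supernatants (5 μg/mL final, or undiluted if lower) on 0.5 mM 4-MUL in 100 mM MES pH 6 with 25 mM gluconolactone, fluorescence ex/em 365/450 nm. Activity measured at 6–8 cellobiose levels up to 100 mM; IC50 from four-parameter fit, bottom constrained to knockout background.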

Data set [2] is described as follows: 4-MUL assay, specific activity (Example 2). Format: biochemical. Conditions: for 411— Measured Specific Activity (SA) / 411— Δ SA* (change in specific activity; ratio of variant: WT): 411 single substitution. Summed up:
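CBH I variant supernatants (5 μg/mL final) hydrolysed 0.5 mM 4-MUL in 100 mM MES pH 6 with 25 mM gluconolactone to block BG, with or without cellobiose. Fluorescence (ex/em 365/450 nm) followed over the first 15 min for initial rates, plus a 1 h endpoint before and after carbonate quench. Specific activity from 4-MU standards and HPLC protein quantification.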

Where [3] appears, read: 411 single substitution, averaged IC50 from Tables 8-11, read-out: 411— Measured (merged IC50).

B1: 268A+411Cys (protein, UniProt P62694 18-513, looked up, variant R268A R411C)
Exoglucanase 1: QSACTLQSETHPPLTWQKCSSGGTCTQQTGSVVIDANWRWTHATNSSTNCYDGNTWSSTLCPDNETCAKNCCLDGAAYASTYGVTTSGNSLSIGFVTQSAQKNVGARLYLMASDTTYQEFTLLGNEFSFDVDVSQLPCGLNGALYFVSMDADGGVSKYPTNTAGAKYGTGYCDSQCPRDLKFINGQANVEGWEPSSNNANTGIGGHGSCCSEMDIWEANSISEALTPHPCTTVGQEICEGDGCGGTYSDNAYGGTCDPDGCDWNPYRLGNTSFYGPGSSFTLDTTKKLTVVTQFETSGAINRYYVQNGVTFQQPNAELGSYSGNELNDDYCTAEEAEFGGSSFSDKGGLTQFKKATSGGMVLVMSLWDDYYANMLWLDSTYPTNETSSTPGAVCGSCSTSSGVPAQVESQSPNAKVTFSNIKFGPIGSTGNPSGGNPPGGNRGTTTTRRPATTTGSSPGPTQSHYGQCGGIGYSGPTVCASGTTCQVLNPYYSQCL
Broadly, the IC50 is the concentration that inhibits the measured activity by half. For the molecule B1, in data set [1] (double mutant 268A+411X, averaged IC50 from Tables 8-11, read-out: 268A+411— Measured (merged IC50)), the IC50 was found to be 10200 µM. Besides, the 50% inhibitory concentration (IC50) in data set [1] (double mutant 268A+411X, expected IC50 (additive values of single mutations), read-out: 268A+411— Expected IC50) came out at 1740 µM. The “synergy of double mutant (measured vs expected additive IC50)” value in data set [1] (double mutant 268A+411X, measured versus expected additive IC50) was found to be 5.8. Besides, in data set [2] (double mutant 268A+411X), the “268A+411— Measured Specific Activity (SA)” value is 1.85 μmol 4 MU/min/mg CBH I and the “268A+411— Δ SA* (change in specific activity; ratio of variant: WT)” value amounted to 2.4.

B2: 411Met (protein, UniProt P62694 18-513, looked up, variant R411M)
Exoglucanase 1: QSACTLQSETHPPLTWQKCSSGGTCTQQTGSVVIDANWRWTHATNSSTNCYDGNTWSSTLCPDNETCAKNCCLDGAAYASTYGVTTSGNSLSIGFVTQSAQKNVGARLYLMASDTTYQEFTLLGNEFSFDVDVSQLPCGLNGALYFVSMDADGGVSKYPTNTAGAKYGTGYCDSQCPRDLKFINGQANVEGWEPSSNNANTGIGGHGSCCSEMDIWEANSISEALTPHPCTTVGQEICEGDGCGGTYSDNRYGGTCDPDGCDWNPYRLGNTSFYGPGSSFTLDTTKKLTVVTQFETSGAINRYYVQNGVTFQQPNAELGSYSGNELNDDYCTAEEAEFGGSSFSDKGGLTQFKKATSGGMVLVMSLWDDYYANMLWLDSTYPTNETSSTPGAVMGSCSTSSGVPAQVESQSPNAKVTFSNIKFGPIGSTGNPSGGNPPGGNRGTTTTRRPATTTGSSPGPTQSHYGQCGGIGYSGPTVCASGTTCQVLNPYYSQCL
B2: the IC50 in data set [1] (setting [3]) amounted to 3340 µM. In data set [2], the “411— Measured Specific Activity (SA)” value is 0.57 μmol 4 MU/min/mg CBH I and the “411— Δ SA* (change in specific activity; ratio of variant: WT)” value was determined as 0.7.

B3: 411Gly (protein, UniProt P62694 18-513, looked up, variant R411G)
Exoglucanase 1: QSACTLQSETHPPLTWQKCSSGGTCTQQTGSVVIDANWRWTHATNSSTNCYDGNTWSSTLCPDNETCAKNCCLDGAAYASTYGVTTSGNSLSIGFVTQSAQKNVGARLYLMASDTTYQEFTLLGNEFSFDVDVSQLPCGLNGALYFVSMDADGGVSKYPTNTAGAKYGTGYCDSQCPRDLKFINGQANVEGWEPSSNNANTGIGGHGSCCSEMDIWEANSISEALTPHPCTTVGQEICEGDGCGGTYSDNRYGGTCDPDGCDWNPYRLGNTSFYGPGSSFTLDTTKKLTVVTQFETSGAINRYYVQNGVTFQQPNAELGSYSGNELNDDYCTAEEAEFGGSSFSDKGGLTQFKKATSGGMVLVMSLWDDYYANMLWLDSTYPTNETSSTPGAVGGSCSTSSGVPAQVESQSPNAKVTFSNIKFGPIGSTGNPSGGNPPGGNRGTTTTRRPATTTGSSPGPTQSHYGQCGGIGYSGPTVCASGTTCQVLNPYYSQCL
Consider B3, for which the IC50 in data set [1] (setting [3]) turned out to be 1810 µM. In data set [2], the “411— Measured Specific Activity (SA)” value was determined as 0.60 μmol 4 MU/min/mg CBH I and the “411— Δ SA* (change in specific activity; ratio of variant: WT)” value stood at 0.8.

Source of the values: patent US20140287471A1, “VARIANT CBH I POLYPEPTIDES WITH REDUCED PRODUCT INHIBITION” (BP CORPORATION NORTN AMERICA INC., priority 2011, published 2014).
